In patent US12589171B2, “177-Lu labeled peptide for site-specific uPAR-targeting” (priority 2012, dated 2026):
Read-outs that look alike come from different tables or passages of the source. Each block holds one compound with its values, some of them ahead of it. Residues, ends and D or L forms follow the SMILES beside them.

How the values were obtained:
human uPAR = target: T1, human uPAR (Homo sapiens, UniProt Q03405); assay: Ligand:uPAR interaction in vitro (binding affinity); conditions: binding affinity towards human uPAR
T1 construct: made in house
Source text: In table 2, the amino acids sequences of each peptid conjugate with the corresponding binding affinity towards human uPAR are shown. Residues in bold is important for the interaction with uPAR. A substitution of two of these important amino acids (Phe^3 and Trp^8) with Glu, results in a complete loss of affinity towards uPAR. […] Importantly, no reduction in affinity is caused by conjugation of DOTA chelator in the N-terminal, illustrated with identical IC50-value between the un-conjugated peptide AE105 and the conjugated form DOTA-AE105.

[1] = Toxicity in HT-29 therapy study (body weight, kidney H&E, deaths); format: in vivo, NMRI nude mice
Source text: Results are presented as the mean±SEM, n=6 animals/group. B, H&E staining of kidney sections representing kidney epithelia (top) and glomerulus (Bottom) from each treatment group. […] One pair of kidneys from one animal/group was stained. Scale bar=25 μm, 40× zoom.
Three days after tumor cell inoculation (study day 0), 18 nude mice bearing the human colorectal carcinoma xenograft HT-29 in each flank were randomly divided into three groups consisting of 6 animals each. All animals in each group were first baseline PET/CT scanned with ^18F-FLT (day 0) before being dosed with 20 MBq of either ^177Lu-DOTA-AE105, ^177Lu-DOTA-AE105mut or vehicle. Subsequently, PET/CT scans of all mice in each group were repeated with ^18F-FLT on study day 1, 3 and 6. Second treatment dose (20 MBq) was administrated on day 7, followed by CT-scan day 8, 10 and 14 to measure tumor volumes using manual ROI drawing on the reconstructed images. On day 14, all animals were euthanized and tumors and kidneys were collected and kept for further analysis at −80° C.
uPAR ELISA on resected HT-29 tumors was done as described previously in detail. All results were performed as duplicate measurements. Expression of uPAR in formalin fixed and paraffin embedded tumor tissue was evaluated by immunohistochemical staining (FIG. 7) as previously published. A general histopathology examination was performed on H&E stained kidney tissue (one pair of kidneys from one animal from each treatment group) and performed by a trained pathologist (ODL).

HT-29 tumor xenograft = assay: Biodistribution in Nude mice bearing HT-29 tumor xenograft (gamma-counter); format: in vivo, NMRI nude mice; conditions: mouse, in vivo
Procedure: (§1) Mice were sacrificed at 0.5, 1.0, 2.0, 4.0 and 24.0 h after injection, and a panel of organs, including blood drawn from the heart, was collected, weighed, and analyzed for radioactive content. Mean percent injected dose per gram (% ID/g)±SEM from three mice at each point is presented. A. Chemical structure of ^177Lu-DOTA-AE105. B(top) Biodistribution of ^177Lu-DOTA-AE105 in selected organs/tissues between 0.5 and 24.0 h. B (bottom). […] HT-29 colorectal cancer cells were obtained from the American Type Culture Collection (Manassas, VA, USA) and culture media was obtained from Invitrogen Co. (Carlsbad, CA, USA). The cell line was cultured in Mc.Coy's standard medium supplemented with 10% (v/v) fetal bovine serum and 1% (v/v) penicillin/Streptomycin at 37° C. and 5% CO2. Xenografts of human HT-29 colorectal cancer cells was established by injection of 200 μl cells (1×10^8 cells/ml) suspended in 100 μl Matrigel (BD Biosciences, San Jose, CA, USA), subcutaneously in the left and right flank of female NMRI nude mice obtained from Taconic, under anesthesia by Hypnorm/doricum (Study day −3). All animal experiments were performed under a protocol approved by the Animal Research Committee of the Danish Ministry of Justice. Biodistribution study was performed as previously described. In brief, Nude mice bearing HT-29 xenografts were injected in the tail-vein with 2-3 MBq of ^177Lu-DOTA-AE105 or ^177Lu-DOTA-AE105mut. All mice were euthanized after 0.5, 1, 2, 4 and 24 hr post tracer injection. Blood, tumor and major organs were collected (wet-weight) and the radioactivity was measured using a γ-counter from Perkin Elmer, MA, USA (N=4 mice/group).

[2] = as above; format: in vivo, NMRI nude mice; conditions: female, NMRI nude, mouse, iv, total radioactivity
Procedure: as §1

[3] = design: species or system NMRI nude mice; conditions: mouse, in vivo
Source text: The organ uptake values, were time integrated to obtain the residence time per gram tissue for dosimetry calculations. Integration between time 0 and 24 hr was made by the trapezoid method. All time points were used to fit to a double exponential function (2-compartment model), which was used to estimate the residence time from 24 hr to infinity. The extrapolated area was in all organs/tissues <17% of the total calculated area, except kidneys (36.1%) and spleen (30.0%). The radioactive decay of ^177Lu produces mainly low energy […]. The S value for a 1 g sphere (0.0233 mGy/MBq s) was used to calculate the organ doses by multiplying it to the organ residence values as previously described. Based on the biodistribution data of ^177Lu-DOTA-AE105, estimates of the dosimetry were calculated (Table 1). […] However, the uPAR-positive fraction of the HT-29 tumor have previously been found only to be located in periphery of the tumor[25]. […] With this is mind and with the knowledge of the small penetration range of ^177Lu beta radiation (<2 mm), the present inventors calculated an estimate of local uPAR-positive tumor fraction dosimetry of approximate 58 mGy/MBq, thus resulting in the highest exposure for all organs/tissue investigated.

T1 sequence (Q03405 23-305): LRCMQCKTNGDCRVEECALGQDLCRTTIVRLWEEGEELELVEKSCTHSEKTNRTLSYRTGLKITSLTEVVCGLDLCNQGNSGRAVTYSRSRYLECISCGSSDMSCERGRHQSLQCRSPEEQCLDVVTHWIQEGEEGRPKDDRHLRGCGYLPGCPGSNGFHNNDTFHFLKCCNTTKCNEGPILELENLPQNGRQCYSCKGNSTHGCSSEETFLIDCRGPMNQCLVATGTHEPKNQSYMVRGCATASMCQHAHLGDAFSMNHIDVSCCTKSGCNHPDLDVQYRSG

IC50 (human uPAR): 6.7 nM
SMILES: CC(C)C[C@H](NC(=O)[C@H](Cc1ccc(O)cc1)NC(=O)[C@@H](CCCNC(=N)N)NC(=O)[C@@H](CO)NC(=O)[C@H](Cc1ccccc1)NC(=O)[C@H](CC1CCCCC1)NC(=O)[C@@H](N)CC(=O)O)C(=O)N[C@@H](Cc1c[nH]c2ccccc12)C(=O)N[C@@H](CO)C(N)=O [AE105, Asp^1-Cha^2-Phe^3-ser^4-arg^5-Tyr^6-Leu^7-Trp^8-Ser^9]

SMILES: CC(C)C[C@H](NC(=O)[C@H](Cc1ccc(O)cc1)NC(=O)[C@@H](CCCNC(=N)N)NC(=O)[C@@H](CO)NC(=O)[C@H](CCC(=O)O)NC(=O)[C@H](CC1CCCCC1)NC(=O)[C@H](CC(=O)O)NC(=O)CN1CCN(CC(=O)O)CCN(CC(=O)O)CCN(CC(=O)O)CC1)C(=O)N[C@@H](CCC(=O)O)C(=O)N[C@@H](CO)C(N)=O [DOTA-AE105mut, DOTA-Asp-Cha-Glu-(D)Ser-(D)Arg-Tyr-Leu-Glu-Ser-CONH2] (HELM PEPTIDE1{[O=C(O)CN1CCN(CC(=O)O)CCN(CC(=O)[*:2])CCN(CC(=O)O)CC1].D.[Cha].E.[dS].[dR].Y.L.E.S.[am]}$$$$V2.0)
IC50 (human uPAR): > 10 nM

SMILES: CC(C)C[C@H](NC(=O)[C@H](Cc1ccc(O)cc1)NC(=O)C(CCCNC(=N)N)NC(=O)C(CO)NC(=O)C(Cc1ccccc1)NC(=O)[C@H](CC1CCCCC1)NC(=O)[C@H](CC(=O)O)NC(=O)CN1CCN(CC(=O)O)CCN(CC(=O)O)CCN(CC(=O)O)CC1)C(=O)N[C@@H](Cc1c[nH]c2ccccc12)C(=O)N[C@@H](CO)C(N)=O (stereo partly shown) [^177Lu-DOTA-AE105, metal not drawn]
premature deaths ([1]; HT-29 study): No animals died prematurely
% ID/g Tumor (HT-29 tumor xenograft; female, NMRI nude, iv, 4 h): 0.176 % ID/g
clearance from blood and organs (HT-29 tumor xenograft): fast clearance rate from blood and all organs investigated
tissue to tissue ratio at 1 h ([2]; in vivo): 12
tissue to tissue ratio at 24 h ([2]; in vivo): 3.3
tissue uptake at 0.5 h ([2]; in vivo, % ID/g Blood): 2.71 %ID/g
tissue uptake at 1 h ([2]; in vivo, % ID/g Blood): 0.282 %ID/g
tissue uptake at 2 h ([2]; in vivo, % ID/g Blood): 0.173 %ID/g
tissue uptake at 4 h ([2]; in vivo, % ID/g Blood): 0.043 %ID/g
tissue uptake at 24 h ([2]; in vivo, % ID/g Blood): 0.005 %ID/g
tissue uptake at 0.5 h ([2]; in vivo, % ID/g Bone): 0.696 %ID/g
tissue uptake at 1 h ([2]; in vivo, % ID/g Bone): 0.699 %ID/g
tissue uptake at 2 h ([2]; in vivo, % ID/g Bone): 0.267 %ID/g
tissue uptake at 4 h ([2]; in vivo, % ID/g Bone): 0.258 %ID/g
tissue uptake at 24 h ([2]; in vivo, % ID/g Bone): 0.32 %ID/g
tissue uptake at 0.5 h ([2]; in vivo, % ID/g Brain): 0.075 %ID/g
tissue uptake at 1 h ([2]; in vivo, % ID/g Brain): 0.038 %ID/g
tissue uptake at 2 h ([2]; in vivo, % ID/g Brain): 0.026 %ID/g
tissue uptake at 4 h ([2]; in vivo, % ID/g Brain): 0.019 %ID/g
tissue uptake at 24 h ([2]; in vivo, % ID/g Brain): 0.005 %ID/g
tissue uptake at 0.5 h ([2]; in vivo, % ID/g Heart): 0.757 %ID/g
tissue uptake at 1 h ([2]; in vivo, % ID/g Heart): 0.143 %ID/g
tissue uptake at 2 h ([2]; in vivo, % ID/g Heart): 0.082 %ID/g
tissue uptake at 4 h ([2]; in vivo, % ID/g Heart): 0.05 %ID/g
tissue uptake at 24 h ([2]; in vivo, % ID/g Heart): 0.017 %ID/g
tissue uptake at 0.5 h ([2]; in vivo, % ID/g Intestine): 0.579 %ID/g
tissue uptake at 1 h ([2]; in vivo, % ID/g Intestine): 0.196 %ID/g
tissue uptake at 2 h ([2]; in vivo, % ID/g Intestine): 0.271 %ID/g
tissue uptake at 4 h ([2]; in vivo, % ID/g Intestine): 0.289 %ID/g
tissue uptake at 24 h ([2]; in vivo, % ID/g Intestine): 0.078 %ID/g
tissue uptake at 0.5 h ([2]; in vivo, % ID/g Liver): 0.686 %ID/g
tissue uptake at 1 h ([2]; in vivo, % ID/g Liver): 0.249 %ID/g
tissue uptake at 2 h ([2]; in vivo, % ID/g Liver): 0.243 %ID/g
tissue uptake at 4 h ([2]; in vivo, % ID/g Liver): 0.284 %ID/g
tissue uptake at 24 h ([2]; in vivo, % ID/g Liver): 0.149 %ID/g
tissue uptake at 0.5 h ([2]; in vivo, % ID/g Muscle): 0.58 %ID/g
tissue uptake at 1 h ([2]; in vivo, % ID/g Muscle): 0.084 %ID/g
tissue uptake at 2 h ([2]; in vivo, % ID/g Muscle): 0.047 %ID/g
tissue uptake at 4 h ([2]; in vivo, % ID/g Muscle): 0.053 %ID/g
tissue uptake at 24 h ([2]; in vivo, % ID/g Muscle): 0.01 %ID/g
tissue uptake at 0.5 h ([2]; in vivo, % ID/g Spleen): 0.924 %ID/g
tissue uptake at 1 h ([2]; in vivo, % ID/g Spleen): 0.262 %ID/g
tissue uptake at 2 h ([2]; in vivo, % ID/g Spleen): 0.222 %ID/g
tissue uptake at 4 h ([2]; in vivo, % ID/g Spleen): 0.303 %ID/g
tissue uptake at 24 h ([2]; in vivo, % ID/g Spleen): 0.109 %ID/g
tissue uptake at 0.5 h ([2]; in vivo, % ID/g Tumor): 1.78 %ID/g
tissue uptake at 1 h ([2]; in vivo, % ID/g Tumor): 0.614 %ID/g
tissue uptake at 2 h ([2]; in vivo, % ID/g Tumor): 0.17 %ID/g
tissue uptake at 4 h ([2]; in vivo, % ID/g Tumor): 0.17 ± 0.02 %ID/g
tissue uptake at 24 h ([2]; in vivo, % ID/g Tumor): 0.057 %ID/g
tissue uptake at 0.5 h ([2]; kidney, Kidney, 0.5 h after injection, read-out: % ID/g Kidney): 6.17 %ID/g
tissue uptake at 1 h ([2]; kidney, Kidney, 1.0 h after injection, read-out: % ID/g Kidney): 2.44 %ID/g
tissue uptake at 2 h ([2]; kidney, Kidney, 2.0 h after injection, read-out: % ID/g Kidney): 1.91 %ID/g
tissue uptake at 4 h ([2]; kidney, Kidney, 4.0 h after injection, read-out: % ID/g Kidney): 1.67 %ID/g
tissue uptake at 24 h ([2]; kidney, Kidney, 24 h after injection, read-out: % ID/g Kidney): 0.839 %ID/g
Dosimetry Blood [3]: 4.9 mGy/MBq
Dosimetry Bone [3]: 1.8 mGy/MBq
Dosimetry Brain [3]: 0.4 mGy/MBq
Dosimetry Heart [3]: 2.0 mGy/MBq
Dosimetry Intestine [3]: 2.9 mGy/MBq
Dosimetry Kidney [3]: 52.9 mGy/MBq
Dosimetry Liver [3]: 2.4 mGy/MBq
Dosimetry Muscle [3]: 1.2 mGy/MBq
Dosimetry Spleen [3]: 5.5 mGy/MBq
Dosimetry Tumor [3]: 5.8 mGy/MBq

SMILES: CC(C)C[C@H](NC(=O)[C@H](Cc1ccc(O)cc1)NC(=O)[C@@H](CCCNC(=N)N)NC(=O)[C@@H](CO)NC(=O)[C@H](CCC(=O)O)NC(=O)[C@H](CC1CCCCC1)NC(=O)[C@H](CC(=O)O)NC(=O)CN1CCN(CC(=O)O)CCN(CC(=O)O)CCN(CC(=O)O)CC1)C(=O)N[C@@H](CCC(=O)O)C(=O)N[C@@H](CO)C(N)=O [^177Lu-DOTA-AE105mut, metal not drawn, reference compound] (HELM PEPTIDE1{[O=C(O)CN1CCN(CC(=O)O)CCN(CC(=O)[*:2])CCN(CC(=O)O)CC1].D.[Cha].E.[dS].[dR].Y.L.E.S.[am]}$$$$V2.0)
animal body weight between treatment groups ([1]; mouse, in vivo): No significant differences in the mean body weights
kidney histopathology (H&E staining) ([1]; mouse, in vivo): no gross macroscopic morphological changes
tissue uptake at 0.5 h ([2]; in vivo, % ID/g Blood): 0.959 %ID/g
tissue uptake at 0.5 h ([2]; in vivo, % ID/g Bone): 0.39 %ID/g
tissue uptake at 0.5 h ([2]; in vivo, % ID/g Brain): 0.081 %ID/g
tissue uptake at 0.5 h ([2]; in vivo, % ID/g Heart): 0.278 %ID/g
tissue uptake at 0.5 h ([2]; in vivo, % ID/g Intestine): 0.2 %ID/g
tissue uptake at 0.5 h ([2]; in vivo, % ID/g Kidney): 3.01 %ID/g
tissue uptake at 0.5 h ([2]; in vivo, % ID/g Liver): 0.228 %ID/g
tissue uptake at 0.5 h ([2]; in vivo, % ID/g Muscle): 0.235 %ID/g
tissue uptake at 0.5 h ([2]; in vivo, % ID/g Spleen): 0.163 %ID/g
tissue uptake at 0.5 h ([2]; in vivo, % ID/g Tumor): 0.708 %ID/g
